In article PMC4603797, “The Structural Differences between a Glycoprotein Specific F-Box Protein Fbs1 and Its Homologous Protein FBG3” (PLoS ONE, 2015) one finds percent of parent data, which are given here for six variants.

Sequences and labels used below:
B1: SBD of Fbs1 (117–297), wild type [murine] / ribonuclease B [modified: a single high-mannose oligosaccharide; a single high-mannose oligosaccharide] [bovine] (parent)
chain 1: FYFLSKRRRNLLRNPCGEEDLEGWSDVEHGGDGWRVEELPGDNGVEFTQDDSVKKYFASSFEWCRKAQVIDLQAEGYWEELLDTTQPAIVVKDWYSGRTDAGSLYELTVRLLSENEDVLAEFATGQVAVPEDGSWMEISHTFIDYGPGVRFVRFEHGGQDSVYWKGWFGARVTNSSVWVEP
chain 2: KETAAAKFERQHMDSSTSAASSSNYCNQMMKSRNLTKDRCKPVNTFVHESLADVQAVCSQKNVACKNGQTNCYQSYSTMSITDCRETGSSKYPNCAYKTTQANKHIIVACEGNPYVPVHFDASV

Variants of B1 are the subject of the assay. The assay can be described thus: pull-down. As to conditions: with ribonuclease B [modified: a single high-mannose oligosaccharide, parent: 100, read off a plot.
Turning to chain 1 T99P, the percent of parent is 49%. As to chain 1 T99P L104K, the percent of parent was 48%. The value for chain 1 A101C L104K was 110%; that for chain 1 A101C was 100%. For chain 1 L104K, the percent of parent amounted to 110%.

Consider chain 1 T99P A101C, for which the percent of parent was 25%.
